{"source": "paper PMC3899043", "about": "“Expression Pattern and Biochemical Properties of Zebrafish N-Acetylglutamate Synthase” (PLoS ONE, 2014)", "molecules": {"B1": {"name": "zfNAGS-C (Danio rerio) (protein)", "chain": "GERSAWSNRTLIYRDVKAFLREIGGDPREARYWLTHFQRAGSTPAFAVLEVDPSVFDSHEMVQSLAFGLSFLQRMDMKLVVVMGLPAEITEDDHTRSATDSPLARTVMVKHCQALTEALQDNSANVMPFFSSEALLQLQDNPLDGSSSGPSVVVDSALLQWTLDCRVIPLVCPVGRDTTGRSSVLRSIQVTTAISQTLQPLKVIFLNSSGGIRNQNHKVLGLVSLPGDLPALSCAEWLNEVEQKRIGSIAELLNLLPVESSAVLTSANTLLTELFSHKGSGTLFKNGDPIRRYSSLEDIDVDRLLALINKSFEKNLREDYIASLEGRLHSVYLSEGYSAAAIITTEPVNSGTPYLDKFVVSSSKQGQGTGQILWECIRQDFSKLFWRSRTTNRINPWYFKHCDGSFVNGHWIVFWLGLSDIRESYELVEFAKSHPDSFCSLSTTETKPLQQHHGS", "notes": "conserved segment (AAK and NAT domains), targeting signal and variable segment removed; N-terminus at Gly73 of preprotein; N-terminal polyhistidine tag kept (pET15b); E. coli C41(DE3); predicted 52,752 Da"}}, "key": {"zfNAGS-M": {"target": "T1, zfNAGS-M (Danio rerio, UniProt E7FCP8)", "T1 construct": "gene nags; mature form, predicted mitochondrial targeting signal removed; N-terminus at Met47 of preprotein; N-terminal polyhistidine tag kept (pET15b); E. coli C41(DE3); predicted 55,498 Da; tetramer", "T1 sequence (E7FCP8 46-527)": "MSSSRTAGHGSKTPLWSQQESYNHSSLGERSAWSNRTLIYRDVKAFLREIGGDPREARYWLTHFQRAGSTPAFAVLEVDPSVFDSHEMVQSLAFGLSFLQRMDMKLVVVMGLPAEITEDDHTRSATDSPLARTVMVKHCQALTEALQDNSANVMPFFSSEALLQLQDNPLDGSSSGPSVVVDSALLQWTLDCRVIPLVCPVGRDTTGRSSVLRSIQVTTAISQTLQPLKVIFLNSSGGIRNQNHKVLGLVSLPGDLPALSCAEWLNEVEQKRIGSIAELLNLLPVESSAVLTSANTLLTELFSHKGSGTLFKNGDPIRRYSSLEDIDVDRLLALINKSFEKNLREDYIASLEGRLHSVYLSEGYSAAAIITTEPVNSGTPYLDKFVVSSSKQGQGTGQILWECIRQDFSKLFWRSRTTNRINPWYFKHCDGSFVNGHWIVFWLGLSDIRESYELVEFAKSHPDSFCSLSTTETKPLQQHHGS", "assay": "enzymatic activity assay, Michaelis-Menten fit", "assay_type": "biochemical", "conditions": "no L-arginine", "source_text": "enzymatic activity assay, Michaelis-Menten fit on zfNAGS-M"}, "zfNAGS-C": {"target": "T2, zfNAGS-C (Danio rerio, UniProt E7FCP8)", "T2 construct": "gene nags; conserved segment (AAK and NAT domains), targeting signal and variable segment removed; N-terminus at Gly73 of preprotein; N-terminal polyhistidine tag kept (pET15b); E. coli C41(DE3); predicted 52,752 Da", "T2 sequence (E7FCP8 73-527)": "B1 chain", "assay": "thermofluor with SYPRO Orange", "assay_type": "binding", "conditions": "L-arginine up to 10 mM; no substrates; pH 7.5 phosphate"}, "[1]": {"target": "mature zebrafish N-acetylglutamate synthase (zfNAGS-M) (zebrafish (Danio rerio)) (UniProt E7FCP8)", "assay": "SEC; analytical gel chromatography, Superdex 200 HR 10/30, room temperature, 50 mM potassium phosphate pH 7.5, 300 mM KCl, 20% glycerol, 10 mM beta-mercaptoethanol, 0.006% Triton X-100, no L-arginine; 100 ul loaded at 0.5-1.3 mg/ml (zfNAGS-M) or 0.5-2.0 mg/ml (zfNAGS-C)"}, "[2]": {"substrate": "N[C@@H](CCC(=O)O)C(=O)O", "assay": "enzymatic activity assay, Michaelis-Menten fit", "assay_type": "biochemical, Danio rerio", "conditions": "4 mM AcCoA; no L-arginine", "source_text": "(§1) enzymatic activity assay, Michaelis-Menten fit on zfNAGS-C"}, "[3]": {"substrate": "CC(=O)SCCNC(=O)CCNC(=O)[C@H](O)C(C)(C)COP(=O)(O)OP(=O)(O)OC[C@H]1O[C@@H](n2cnc3c(N)ncnc32)[C@H](O)[C@@H]1OP(=O)(O)O", "assay": "enzymatic activity assay, Michaelis-Menten fit", "assay_type": "biochemical, Danio rerio", "conditions": "15 mM L-glutamate; no L-arginine", "source_text": "as §1"}}, "note": "Read-outs that look alike come from different tables or passages of the source."}
{"molecule": "CC(=O)SCCNC(=O)CCNC(=O)[C@H](O)C(C)(C)COP(=O)(O)OP(=O)(O)OC[C@H]1O[C@@H](n2cnc3c(N)ncnc32)[C@H](O)[C@@H]1OP(=O)(O)O", "note": "[AcCoA]", "values": [{"measurement": "Km", "setting": "zfNAGS-M; 15 mM L-glutamate, read-out: AcCoA / Km ^app", "result": "220 ± 30", "unit": "µM"}]}
{"molecule": "N=C(N)NCCC[C@H](N)C(=O)O", "note": "[L-arginine]", "values": [{"measurement": "thermofluor with SYPRO Orange", "setting": "zfNAGS-C", "result": "Addition of L-arginine to both zfNAGS-M and zfNAGS-C resulted in changes"}]}
{"molecule": "N[C@@H](CCC(=O)O)C(=O)O", "note": "[L-glutamate]", "values": [{"measurement": "Km", "setting": "zfNAGS-M; 4 mM AcCoA, read-out: Glutamate / Km ^app", "result": "1130 ± 130", "unit": "µM"}]}
{"molecule": "mature zebrafish N-acetylglutamate synthase (zfNAGS-M) (from UniProt E7FCP8 47-527) (enzyme)", "values": [{"measurement": "stoichiometry N", "setting": "[1]", "result": 4}]}
{"molecule": "B1", "values": [{"measurement": "Km", "setting": "[2]", "result": "1120 ± 210", "unit": "µM"}, {"measurement": "Vmax", "setting": "[2]", "result": 39.5, "unit": "µmol/min/mg"}, {"measurement": "Km", "setting": "[3]", "result": "230 ± 60", "unit": "µM"}, {"measurement": "Vmax", "setting": "[3]", "result": 32.2, "unit": "µmol/min/mg"}]}
